Results from patent JPH09322796A (dated 1997).
One block for each binder: values may come before it.

Assays:
[1] = biological target: T1, Fas抗原 on the human lymphocyte cell line HPB−ALL (human, UniProt P25445 26-335); test: cell-based or functional assay
T1 sequence (looked up): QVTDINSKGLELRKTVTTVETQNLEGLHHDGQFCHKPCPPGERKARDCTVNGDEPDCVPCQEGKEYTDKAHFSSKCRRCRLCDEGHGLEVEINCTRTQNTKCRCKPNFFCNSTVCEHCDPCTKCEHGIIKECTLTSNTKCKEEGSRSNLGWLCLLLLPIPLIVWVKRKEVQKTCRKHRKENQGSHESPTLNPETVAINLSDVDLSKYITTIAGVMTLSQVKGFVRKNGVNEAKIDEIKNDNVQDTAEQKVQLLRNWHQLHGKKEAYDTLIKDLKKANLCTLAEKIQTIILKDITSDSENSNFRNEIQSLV

[2] = biological target: ヒトFas抗原の細胞外領域とマウスインターロイキン3受容体の細胞外領域との融合タンパク質 (fusion of human Fas extracellular region and mouse IL-3 receptor extracellular region, from phFas-AIC2) (human; mouse) (UniProt P25445); test: ELISA, COS-1 supernatant with human Fas-mouse IL-3 receptor fusion coated, detection with peroxidase-labelled rat anti-mouse IgM; PBS blank 0.104

ED 50 (ng/ml) (MTT assay, HPB-ALL cells)) [1]: 21.2 ng/mL | OD 405 −OD 492 [2]: 0.445
B1: マウス抗ヒトFasモノクローナル抗体CH11 (mouse anti-human Fas monoclonal antibody CH11, purified from hybridoma culture supernatant) (antibody, mouse IgM)
heavy: EVQLQQSGPELVKPGASVKISCKASGYTFTDYNMHWVKQSHGKSLEWIGYIYPYNGGTGYNQKFKSKATLTVDNSSSTAYMELRSLTSEDSAVYYCARSYYAMDYWGQGTSVTVSSESQSFPNVFPLVSCESPLSDKNLVAMGCLARDFLPSTISFTWNYQNNTEVIQGIRTFPTLRTGGKYLATSQVLLSPKSILEGSDEYLVCKIHYGGKNRDLHVPIPAVAEMNPNVNVFVPPRDGFSGPAPRKSKLICEATNFTPKPITVSWLKDGKLVESGFTTDPVTIENKGSTPQTYKVISTLTISEIDWLNLNVYTCRVDHRGLTFLKNVSSTCAASPSTDILTFTIPPSFADIFLSKSANLTCLVSNLATYETLNISWASQSGEPLETKIKIMESHPNGTFSAKGVASVCVEDWNNRKEFVCTVTHRDLPSPQKKFISKPNEVHKHPPAVYLLPPAREQLNLRESATVTCLVKGFSPADISVQWLQRGQLLPQEKYVTSAPMPEPGAPGFYFTHSILTVTEEEWNSGETYTCVVGHEALPHLVTERTVDKSTGKPTLYNVSLIMSDTGGTCY
light: DVVMTQSPLSLPVSLGDQASISCRSSKSLVHSNGNTYLHWYLQKPGQSPKLLIYKVSNRFSGVPDRFSGSGSGTDFTLKISRVEAEDLGVYFCSQSTHVPPAFGGGTKLEIKRADAAPTVSIFPPSSEQLTSGGASVVCFLNNFYPKDINVKWKIDGSERQNGVLNSWTDQDSKDSTYSMSSTLTLTKDEYERHNSYTCEATHKTSTSPIVKSFNRNEC
chain: DDEATILADNKCMCTRVTSRIIPSTEDPNEDIVERNIRIVVPLNNRENISDPTSPLRRNFVYHLSDVCKKCDPVEVELEDQVVTATQSNICNEDDGVPETCYMYDRNKCYTTMVPLRYHGETKMVQAALTPDSCYPD

ED 50 (ng/ml) (MTT assay, HPB-ALL cells)) [1]: 4.5 ng/mL | OD 590 −OD 620 (MTT assay, HPB-ALL cells, 12 h; higher = more living cells) [1]: 0.176 | OD 405 −OD 492 [2]: 0.33
B2: 上清[E](pHEX126+pLEX004)に含まれる生産物 (recombinant CH11 H chain + L chain without J chain, COS-1 culture supernatant) (antibody)
heavy: B1 heavy
light: B1 light
cytotoxic activity relative to CH11 or to the product of supernatant [F] [1]: ~5 fold

ED 50 (ng/ml) (MTT assay, HPB-ALL cells)) [1]: 22.9 ng/mL | OD 590 −OD 620 (MTT assay, HPB-ALL cells, 12 h; higher = more living cells) [1]: 0.242 | OD 405 −OD 492 [2]: 0.202
B3: 上清[F](pHEX126、pLEX004+pJEX004)に含まれる生産物 (recombinant CH11 H chain + L chain + J chain, COS-1 culture supernatant) (antibody)
heavy: B1 heavy
light: B1 light
chain: B1 chain

OD 590 −OD 620 (MTT assay, HPB-ALL cells, 12 h; higher = more living cells) [1]: 0.883 | OD 405 −OD 492 [2]: 0.107
B4: pJEX004のみで形質転換したCOS−1細胞の培養上清[D] (CH11 J chain expressed alone) (other)
chain: B1 chain

OD 590 −OD 620 (MTT assay, HPB-ALL cells, 12 h; higher = more living cells) [1]: 0.876 | OD 405 −OD 492 [2]: 0.109
B5: pHEX126のみで形質転換したCOS−1細胞の培養上清[B] (CH11 H chain expressed alone) (other)
heavy: B1 heavy

OD 590 −OD 620 (MTT assay, HPB-ALL cells, 12 h; higher = more living cells) [1]: 0.887 | OD 405 −OD 492 [2]: 0.135
B6: pLEX004のみで形質転換したCOS−1細胞の培養上清[C] (CH11 L chain expressed alone) (other)
light: B1 light
